Earlier results on 1 substance are cited in article PMC3432176.

A word on the Kd: it is the constant that tells how readily two partners part at equilibrium.

This data set addresses preMADH (Paracoccus denitrificans) (UniProt P22619). The data set is described as follows: kinetics.
Chain of UniProt P22619 (P22619 58-188, chain 1 of 2): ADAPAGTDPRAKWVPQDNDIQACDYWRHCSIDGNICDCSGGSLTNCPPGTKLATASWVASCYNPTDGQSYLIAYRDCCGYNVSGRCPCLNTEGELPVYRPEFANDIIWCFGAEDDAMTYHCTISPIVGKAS
Chain of UniProt P22619 (P29894 29-417, chain 2 of 2, further chain): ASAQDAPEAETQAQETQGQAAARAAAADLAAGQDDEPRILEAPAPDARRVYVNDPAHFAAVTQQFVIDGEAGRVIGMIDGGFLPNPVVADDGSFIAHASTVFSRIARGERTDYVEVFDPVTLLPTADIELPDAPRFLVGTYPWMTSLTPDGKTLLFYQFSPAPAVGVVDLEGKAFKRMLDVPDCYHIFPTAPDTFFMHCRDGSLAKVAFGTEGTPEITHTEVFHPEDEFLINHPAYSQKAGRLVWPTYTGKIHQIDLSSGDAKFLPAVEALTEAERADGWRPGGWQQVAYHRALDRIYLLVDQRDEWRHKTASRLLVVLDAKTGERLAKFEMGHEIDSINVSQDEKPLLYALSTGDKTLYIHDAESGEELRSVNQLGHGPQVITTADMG

On to MauG (from UniProt Q51658), for which the Kd was below 1500 nM.
